Measured values: paper PMC11432383

Assays:
[1] = molecular target: SyMRP, MoxR AAA+ ATPase of Synechococcus sp. strain NKBG15041c, with a His-tag at the C-terminus (Synechococcus sp. strain NKBG15041c); experiment: atomic force microscopy; high-speed AFM, sample on Ni2+-coated mica, washed with 50 mM Tris-HCl pH 7.5
[2] = molecular target: SyMRP, MoxR AAA+ ATPase of Synechococcus sp. strain NKBG15041c, with a His-tag at the C-terminus (Synechococcus sp. strain NKBG15041c); experiment: negative-stain transmission electron microscopy; carbon-coated copper grids, 2.5% uranyl acetate, 50,000x, 100 kV
[3] = molecular target: SyMRP, MoxR AAA+ ATPase of Synechococcus sp. strain NKBG15041c, with a His-tag at the C-terminus (Synechococcus sp. strain NKBG15041c); experiment: SEC; HPLC gel filtration column SB-804HQ, 50 mM Tris-HCl pH 7.5, 0.1 mM EDTA, 150 mM NaCl, 0.5 mL/min; mass from marker proteins (apparent)
[4] = molecular target: SyMRP, MoxR AAA+ ATPase of Synechococcus sp. strain NKBG15041c, with a His-tag at the C-terminus (Synechococcus sp. strain NKBG15041c); experiment: AUC; sedimentation velocity, 2.0 mg/mL SyMRP, 50 mM Tris-HCl pH 8.0, 200 mM NaCl, without ATP, 25 °C, 60,000 rpm, interference optics, SEDFIT
[5] = molecular target: SyMRP, MoxR AAA+ ATPase of Synechococcus sp. strain NKBG15041c, with a His-tag at the C-terminus (Synechococcus sp. strain NKBG15041c); experiment: as above; remark: listed apart in the source
[6] = molecular target: SyMRP, MoxR AAA+ ATPase of Synechococcus sp. strain NKBG15041c, with a His-tag at the C-terminus (Synechococcus sp. strain NKBG15041c); experiment: AUC; sedimentation velocity, 2.0 mg/mL SyMRP, 50 mM Tris-HCl pH 8.0, 200 mM NaCl, with 1 mM ATP, 25 °C, 60,000 rpm, interference optics, SEDFIT

A stoichiometry N [1] of 6, a stoichiometry N [2] of 6 and a stoichiometry N [3] of 6 were found for “SyMRP, MoxR AAA+ ATPase of Synechococcus sp. strain NKBG15041c, with a His-tag at the C-terminus (enzyme)” in this work. The stoichiometry N [4] was 6, the weight fraction w of the 4.18 S component (small oligomer) [4] was 4% and the weight fraction w of the 7.60 S component (hexamer) [4] was 91.4%. It also gave a stoichiometry N [5] of 2, a weight fraction w of the 4.26 S component (small oligomer) [6] of 2.6% and a weight fraction w of the 7.53 S component (main component) [6] of 90.9%.
